Measurements from paper PMC7982615, “Phase 1 study of telisotuzumab vedotin in Japanese patients with advanced solid tumors” (Cancer Medicine, 2021).

Assay: Safety and tolerability (TEAEs, DLTs, AESIs) in phase 1 dose-escalation study of teliso‐v
Type: in vivo, human
Description: This phase 1, open‐label, dose‐escalation clinical trial was conducted at two sites in Japan (NCT03311477). Enrollment began on November 6, 2017, and the trial was completed on March 4, 2019.
Escalation into the higher dose level proceeded if the first three evaluable patients in the lower dose level completed the first‐cycle (for at least 21 days) safety assessment without experiencing a dose‐limiting toxicity (DLT). DLT evaluations for dose escalation and determination of RP2D were carried out by investigators, study sponsor, and an independent safety monitor. […] No premedication was required. On the basis of confirmed availability of archival tumor tissue at enrollment, patients were retrospectively analyzed for c‐Met expression and MET amplification. c‐Met expression was determined by immunohistochemistry (IHC), and MET amplification was determined by fluorescence in situ hybridization or sequencing of plasma or tumor DNA.
Safety assessments included treatment‐emergent adverse events (TEAEs) graded according to the National Cancer Institute Common Terminology Criteria for Adverse Events version 4.03. TEAEs, vital signs, physical examinations, electrocardiograms, laboratory tests, and ECOG performance status were monitored during the study. Any grade ≥3 study drug‐related nonhematologic toxicity was documented as a DLT, except as follows: grade 3 nausea or vomiting lasting ≤48 hours that was successfully managed with antiemetics; grade 3 diarrhea successfully managed with antidiarrheal; grade 3 constipation lasting ≤7 days; grade 3 acute infusion reaction that resolved to grade ≤1 within 24 hours after the end of dosing; grade 3 and 4 laboratory tests including but not limited to lactate dehydrogenase, alkaline phosphatase, and gamma‐glutamyl transferase that were considered nonclinically significant by the investigator; liver function test abnormalities; grade 3 and 4 electrolyte imbalance unless associated with clinical symptomatology despite supplementation; and grade 3 hyperglycemia that was manageable without hospitalization. The following hematologic toxicities were documented as a DLT: any grade 4 hematologic toxicity (excluding febrile neutropenia or leukopenia lasting for ≤7 days, or lymphopenia); anemia requiring red blood cell transfusion; thrombocytopenia requiring platelet transfusion; grade 3 thrombocytopenia in the presence of grade ≥2 bleeding; and grade ≥3 febrile neutropenia. Toxicity management criteria are described in the Supplementary appendix.
All data were summarized and tabulated by dose cohort. Categoric data were summarized in terms of frequency counts and percentages. Continuous data were summarized using descriptive statistics, including number of observations, mean, standard deviation, median, minimum, and maximum. No formal statistical analysis was performed for efficacy variables, which were all exploratory in nature. ORR was defined as the proportion of patients with a confirmed partial response (PR) or complete response (CR). Duration of response was defined as time from a patient's initial objective response to the first date of disease progression (PD) or death. The overall disease control rate was defined as the proportion of patients with CR, PR, or stable disease (SD). […] PFS was estimated using the Kaplan–Meier method. Efficacy analyses are presented with two‐sided exact 95% binomial CI.

With “Teliso‐v: antibody‐drug conjugate: anti–c‐Met humanized monoclonal antibody ABT‐700 coupled to monomethyl auristatin E through a valine‐citrulline linker, drug:antibody ratio approximately three” the “Alanine aminotransferase increased, TEAE regardless of relationship” value (2.4 mg/kg Q3W, n = 3) was 0 n (%), the “Alanine aminotransferase increased, TEAE related to teliso‐v” value (2.4 mg/kg Q3W, n = 3) was 0 n (%) and the “Alopecia, TEAE regardless of relationship” value (2.4 mg/kg Q3W, n = 3) was 0 n (%). For the same substance, the “Alopecia, TEAE related to teliso‐v” value (2.4 mg/kg Q3W, n = 3) was 0 n (%), the “Anemia, TEAE regardless of relationship” value (2.4 mg/kg Q3W, n = 3) was 1 (33) n (%) and the “Aspartate aminotransferase increased, TEAE regardless of relationship” value (2.4 mg/kg Q3W, n = 3) was 0 n (%). For the same substance, the “Aspartate aminotransferase increased, TEAE related to teliso‐v” value (2.4 mg/kg Q3W, n = 3) was 0 n (%), the “Back pain, TEAE regardless of relationship” value (2.4 mg/kg Q3W, n = 3) was 1 (33) n (%) and the “Constipation, TEAE regardless of relationship” value (2.4 mg/kg Q3W, n = 3) was 0 n (%). The “Decreased appetite, TEAE regardless of relationship” value (2.4 mg/kg Q3W, n = 3) was 2 (67) n (%), the “Decreased appetite, TEAE related to teliso‐v” value (2.4 mg/kg Q3W, n = 3) was 2 (67) n (%) and the “Diarrhea, TEAE regardless of relationship” value (2.4 mg/kg Q3W, n = 3) was 1 (33) n (%). The “Fatigue, TEAE regardless of relationship” value (2.4 mg/kg Q3W, n = 3) was 1 (33) n (%), the “Fatigue, TEAE related to teliso‐v” value (2.4 mg/kg Q3W, n = 3) was 1 (33) n (%) and the “Hypoalbuminemia, TEAE regardless of relationship” value (2.4 mg/kg Q3W, n = 3) was 0 n (%). The “Malaise, TEAE regardless of relationship” value (2.4 mg/kg Q3W, n = 3) was 2 (67) n (%), the “Malaise, TEAE related to teliso‐v” value (2.4 mg/kg Q3W, n = 3) was 2 (67) n (%) and the “Nausea, TEAE regardless of relationship” value (2.4 mg/kg Q3W, n = 3) was 1 (33) n (%). The “Nausea, TEAE related to teliso‐v” value (2.4 mg/kg Q3W, n = 3) was 1 (33) n (%), the “Neutrophil count decreased, TEAE regardless of relationship” value (2.4 mg/kg Q3W, n = 3) was 0 n (%) and the “Neutrophil count decreased, TEAE related to teliso‐v” value (2.4 mg/kg Q3W, n = 3) was 0 n (%). For the same substance, the “Peripheral neuropathy, TEAE regardless of relationship” value (2.4 mg/kg Q3W, n = 3) was 2 (67) n (%), the “Peripheral neuropathy, TEAE related to teliso‐v” value (2.4 mg/kg Q3W, n = 3) was 2 (67) n (%) and the “Peripheral sensory neuropathy, TEAE regardless of relationship” value (2.4 mg/kg Q3W, n = 3) was 1 (33) n (%). The “Peripheral sensory neuropathy, TEAE related to teliso‐v” value (2.4 mg/kg Q3W, n = 3) was 1 (33) n (%), the “Punctate keratitis, TEAE regardless of relationship” value (2.4 mg/kg Q3W, n = 3) was 1 (33) n (%) and the “Punctate keratitis, TEAE related to teliso‐v” value (2.4 mg/kg Q3W, n = 3) was 1 (33) n (%). For the same substance, the “Weight decreased, TEAE regardless of relationship” value (2.4 mg/kg Q3W, n = 3) was 1 (33) n (%), the “Weight decreased, TEAE related to teliso‐v” value (2.4 mg/kg Q3W, n = 3) was 1 (33) n (%) and the “White blood cell count decreased, TEAE regardless of relationship” value (2.4 mg/kg Q3W, n = 3) was 0 n (%). The “White blood cell count decreased, TEAE related to teliso‐v” value (2.4 mg/kg Q3W, n = 3) was 0 n (%), the Tolerability (2.7 mg/kg Q3 W, Japanese patients) was “well‐tolerated” and the “Alanine aminotransferase increased, TEAE regardless of relationship” value (2.7 mg/kg Q3W, n = 6) was 2 (33) n (%). For the same substance, the “Alanine aminotransferase increased, TEAE related to teliso‐v” value (2.7 mg/kg Q3W, n = 6) was 2 (33) n (%), the “Alopecia, TEAE regardless of relationship” value (2.7 mg/kg Q3W, n = 6) was 2 (33) n (%) and the “Alopecia, TEAE related to teliso‐v” value (2.7 mg/kg Q3W, n = 6) was 2 (33) n (%). For the same substance, the “Anemia, TEAE regardless of relationship” value (2.7 mg/kg Q3W, n = 6) was 1 (17) n (%), the “Aspartate aminotransferase increased, TEAE regardless of relationship” value (2.7 mg/kg Q3W, n = 6) was 2 (33) n (%) and the “Aspartate aminotransferase increased, TEAE related to teliso‐v” value (2.7 mg/kg Q3W, n = 6) was 2 (33) n (%). For the same substance, the “Back pain, TEAE regardless of relationship” value (2.7 mg/kg Q3W, n = 6) was 1 (17) n (%), the “Constipation, TEAE regardless of relationship” value (2.7 mg/kg Q3W, n = 6) was 2 (33) n (%) and the “Decreased appetite, TEAE regardless of relationship” value (2.7 mg/kg Q3W, n = 6) was 1 (17) n (%). The “Decreased appetite, TEAE related to teliso‐v” value (2.7 mg/kg Q3W, n = 6) was 1 (17) n (%), the “Diarrhea, TEAE regardless of relationship” value (2.7 mg/kg Q3W, n = 6) was 1 (17) n (%) and the “Fatigue, TEAE regardless of relationship” value (2.7 mg/kg Q3W, n = 6) was 1 (17) n (%). For the same substance, the “Fatigue, TEAE related to teliso‐v” value (2.7 mg/kg Q3W, n = 6) was 1 (17) n (%), the “Hypoalbuminemia, TEAE regardless of relationship” value (2.7 mg/kg Q3W, n = 6) was 2 (33) n (%) and the “Malaise, TEAE regardless of relationship” value (2.7 mg/kg Q3W, n = 6) was 0 n (%). For the same substance, the “Malaise, TEAE related to teliso‐v” value (2.7 mg/kg Q3W, n = 6) was 0 n (%), the “Nausea, TEAE regardless of relationship” value (2.7 mg/kg Q3W, n = 6) was 2 (33) n (%) and the “Nausea, TEAE related to teliso‐v” value (2.7 mg/kg Q3W, n = 6) was 2 (33) n (%). The “Neutrophil count decreased, TEAE regardless of relationship” value (2.7 mg/kg Q3W, n = 6) was 2 (33) n (%), the “Neutrophil count decreased, TEAE related to teliso‐v” value (2.7 mg/kg Q3W, n = 6) was 2 (33) n (%) and the “Peripheral neuropathy, TEAE regardless of relationship” value (2.7 mg/kg Q3W, n = 6) was 0 n (%). For the same substance, the “Peripheral neuropathy, TEAE related to teliso‐v” value (2.7 mg/kg Q3W, n = 6) was 0 n (%), the “Peripheral sensory neuropathy, TEAE regardless of relationship” value (2.7 mg/kg Q3W, n = 6) was 3 (50) n (%) and the “Peripheral sensory neuropathy, TEAE related to teliso‐v” value (2.7 mg/kg Q3W, n = 6) was 3 (50) n (%). The “Punctate keratitis, TEAE regardless of relationship” value (2.7 mg/kg Q3W, n = 6) was 1 (17) n (%), the “Punctate keratitis, TEAE related to teliso‐v” value (2.7 mg/kg Q3W, n = 6) was 1 (17) n (%) and the “Weight decreased, TEAE regardless of relationship” value (2.7 mg/kg Q3W, n = 6) was 2 (33) n (%). For the same substance, the “Weight decreased, TEAE related to teliso‐v” value (2.7 mg/kg Q3W, n = 6) was 1 (17) n (%), the “White blood cell count decreased, TEAE regardless of relationship” value (2.7 mg/kg Q3W, n = 6) was 3 (50) n (%) and the “White blood cell count decreased, TEAE related to teliso‐v” value (2.7 mg/kg Q3W, n = 6) was 3 (50) n (%).
